In FireProtDB (doi:10.1074/jbc.m704364200):

B1: Prolactin, P01236 (parent)
chain: MNIKGSPWKGSLLLLLVSNLLLCQSVAPLPICPGGAARCQVTLRDLFDRAVVLSHYIHNLSSEMFSEFDKRYTHGRGFITKAINSCHTSSLATPEDKEQAQQMNQKDFLSLIVSILRSWNEPLYHLVTEVRGMQEAPEAILSKAVEIEEQTKRLLEGMELIVSQVHPETKENEIYPVWSGLPSLQMADEESRLSAYYNLLHCLRRDSHKIDNYLKLLKCRIIHNNNC

Variants of: B1
Details: Homo sapiens; pH 7.4; Thermal; CD; NaH2PO4 100mM; structure 1RW5; whole UniProt chain shown

Row | Variant | Tm | change of melting temperature, mutant - wild type (higher = more stable) | unfolding enthalpy (calorimetric)
1 | G157R | 79 °C | -2.2 °C | 55.9 kcal/mol
2 | G157F | 93.8 °C | 12.7 °C | 
3 | G157P | 70.8 °C | -10.3 °C | 50.1 kcal/mol
4 | G157D | 84.2 °C | 3.1 °C | 58 kcal/mol
5 | G157N | 89.8 °C | 8.7 °C | 
6 | G157V | 101 °C | 19.7 °C | 
7 | G157Y | 96.8 °C | 15.7 °C | 
8 | G157L | 96.8 °C | 15.7 °C | 
